Test results published in patent publication US10800847.

Experiments:
[1] = molecular target: HLA-Cw*1802 (Cw18) (human); experiment: Luminex, regular beads (#7), 1:8
[2] = molecular target: HLA-Cw*0702 (Cw7) (human); experiment: Luminex, regular beads (#7), 1:8
[3] = molecular target: Albumin (negative control beads) (human or bovine); experiment: Luminex, regular beads (#7), 1:8
[4] = molecular target: HLA-Cw*0202 (Cw2) (human); experiment: Luminex, regular beads (#7), 1:8
[5] = molecular target: HLA-Cw*1402 (Cw14) (human); experiment: Luminex, regular beads (#7), 1:8
[6] = molecular target: HLA-Cw*0302 (Cw10) (human); experiment: Luminex, regular beads (#7), 1:8
[7] = molecular target: HLA-Cw*1203 (Cw12) (human); experiment: Luminex, regular beads (#7), 1:8
[8] = molecular target: HLA-Cw*0401 (Cw4) (human); experiment: Luminex, regular beads (#7), 1:8
[9] = molecular target: HLA-Cw*0303 (Cw9) (human); experiment: Luminex, regular beads (#7), 1:8
[10] = molecular target: HLA-Cw*0102 (Cw1) (human); experiment: Luminex, regular beads (#7), 1:8
[11] = molecular target: HLA-Cw*1601 (Cw16) (human); experiment: Luminex, regular beads (#7), 1:8
[12] = molecular target: HLA-Cw*0304 (Cw10) (human); experiment: Luminex, regular beads (#7), 1:8
[13] = molecular target: HLA-Cw*1701 (Cw17) (human); experiment: Luminex, regular beads (#7), 1:8
[14] = molecular target: HLA-Cw*0501 (Cw5) (human); experiment: Luminex, regular beads (#7), 1:8
[15] = molecular target: HLA-Cw*1502 (Cw15) (human); experiment: Luminex, regular beads (#7), 1:8
[16] = molecular target: HLA-B*8201 (B82) (human); experiment: Luminex, regular beads (#7), 1:8
[17] = molecular target: HLA-Cw*0602 (Cw6) (human); experiment: Luminex, iBeads (#6), 1:8
[18] = molecular target: HLA-Cw*1802 (Cw18) (human); experiment: Luminex, iBeads (#6), 1:8
[19] = molecular target: HLA-Cw*0702 (Cw7) (human); experiment: Luminex, iBeads (#6), 1:8
[20] = molecular target: HLA-Cw*1402 (Cw14) (human); experiment: Luminex, iBeads (#6), 1:8
[21] = molecular target: HLA-Cw*0302 (Cw10) (human); experiment: Luminex, iBeads (#6), 1:8
[22] = molecular target: HLA-Cw*1203 (Cw12) (human); experiment: Luminex, iBeads (#6), 1:8
[23] = molecular target: HLA-Cw*0303 (Cw9) (human); experiment: Luminex, iBeads (#6), 1:8
[24] = molecular target: HLA-Cw*1601 (Cw16) (human); experiment: Luminex, iBeads (#6), 1:8
[25] = molecular target: HLA-Cw*0304 (Cw10) (human); experiment: Luminex, iBeads (#6), 1:8
[26] = molecular target: HLA-Cw*0801 (Cw8) (human); experiment: Luminex, iBeads (#6), 1:8
[27] = molecular target: HLA-Cw*1701 (Cw17) (human); experiment: Luminex, iBeads (#6), 1:8
[28] = molecular target: HLA-Cw*0501 (Cw5) (human); experiment: Luminex, iBeads (#6), 1:8
[29] = molecular target: HLA-Cw*1502 (Cw15) (human); experiment: Luminex, iBeads (#6), 1:8
[30] = molecular target: HLA-B*8201 (B82) (human); experiment: Luminex, iBeads (#6), 1:8
[31] = molecular target: HLA-Cw*0602 (Cw6) (human); experiment: Luminex, iBead vs regular bead MFI, 1:8
[32] = molecular target: HLA-Cw*1802 (Cw18) (human); experiment: Luminex, iBead vs regular bead MFI, 1:8
[33] = molecular target: HLA-Cw*0702 (Cw7) (human); experiment: Luminex, iBead vs regular bead MFI, 1:8
[34] = molecular target: Albumin (negative control beads) (human or bovine); experiment: Luminex, iBead vs regular bead MFI, 1:8
[35] = molecular target: HLA-Cw*0202 (Cw2) (human); experiment: Luminex, iBead vs regular bead MFI, 1:8
[36] = molecular target: HLA-Cw*1402 (Cw14) (human); experiment: Luminex, iBead vs regular bead MFI, 1:8
[37] = molecular target: HLA-Cw*0303 (Cw9) (human); experiment: Luminex, iBead vs regular bead MFI, 1:8
[38] = molecular target: HLA-Cw*0102 (Cw1) (human); experiment: Luminex, iBead vs regular bead MFI, 1:8
[39] = molecular target: HLA-Cw*1601 (Cw16) (human); experiment: Luminex, iBead vs regular bead MFI, 1:8
[40] = molecular target: HLA-Cw*0304 (Cw10) (human); experiment: Luminex, iBead vs regular bead MFI, 1:8
[41] = molecular target: HLA-Cw*0801 (Cw8) (human); experiment: Luminex, iBead vs regular bead MFI, 1:8
[42] = molecular target: HLA-Cw*1701 (Cw17) (human); experiment: Luminex, iBead vs regular bead MFI, 1:8
[43] = molecular target: HLA-Cw*0501 (Cw5) (human); experiment: Luminex, iBead vs regular bead MFI, 1:8
[44] = molecular target: HLA-B*8201 (B82) (human); experiment: Luminex, iBead vs regular bead MFI, 1:8
[45] = molecular target: HLA-A*8001 (A80) single antigen on Luminex beads (human); experiment: Luminex single antigen bead assay, regular beads (#7), IVIg 1:8
[46] = molecular target: HLA-A*6901 (A69) single antigen on Luminex beads (human); experiment: as above
[47] = molecular target: HLA-A*7401 (A74) single antigen on Luminex beads (human); experiment: as above

## IVIg Octagam (Octapharma, Lachen, Switzerland) (antibody)
[1]
  MFI: 10600 MFI
[2]
  MFI: 15300 MFI
[3]
  MFI: 2340 MFI
[4]
  MFI: 9380 MFI
[5]
  MFI: 8430 MFI
[6]
  MFI: 5610 MFI
[7]
  MFI: 8660 MFI
[8]
  MFI: 9880 MFI
[9]
  MFI: 3350 MFI
[10]
  MFI: 7720 MFI
[11]
  MFI: 9260 MFI
[12]
  MFI: 5550 MFI
[13]
  MFI: 8980 MFI
[14]
  MFI: 8770 MFI
[15]
  MFI: 4820 MFI
[16]
  MFI: 5030 MFI
[17]
  MFI: 586 MFI
[18]
  MFI: 873 MFI
[19]
  MFI: 1620 MFI
[20]
  MFI: 976 MFI
[21]
  MFI: 1170 MFI
[22]
  MFI: 1620 MFI
[23]
  MFI: 1220 MFI
[24]
  MFI: 1110 MFI
[25]
  MFI: 1440 MFI
[26]
  MFI: 650 MFI
[27]
  MFI: 2710 MFI
[28]
  MFI: 1510 MFI
[29]
  MFI: 255 MFI
[30]
  MFI: 510 MFI
[31]
  Difference %: -96%
[32]
  Difference %: -92%
[33]
  Difference %: -89%
[34]
  Difference %: -29%
[35]
  Difference %: -80%
[36]
  Difference %: -88%
[37]
  Difference %: -64%
[38]
  Difference %: -77%
[39]
  Difference %: -88%
[40]
  Difference %: -74%
[41]
  Difference %: -85%
[42]
  Difference %: -70%
[43]
  Difference %: -83%
[44]
  Difference %: -90%
[45]
  MFI: 2290 MFI
[46]
  MFI: 1720 MFI
[47]
  MFI: 201 MFI
